Measured values reported in patent publication WO2018134681A1 (dated 2018).

How the values were obtained:
human TGF-β1 [1] = target: T1, human TGF-β1 (human, UniProt P01137 279-390); assay: cell-based or functional assay
[2] = target: T2, murine TGF-β1 (identical in amino acid sequence to rat TGF-β1) (mouse, UniProt P04202 279-390); assay: SPR, Biacore T200, TGF-β homodimer immobilized on CM5 chip, Ab1 injected, 1:1 model
T2 construct: mature; also called Murine and Rat TGF-βΙ; murine/rat TGF-β1
T2 sequence (P04202 279-390 limits assumed): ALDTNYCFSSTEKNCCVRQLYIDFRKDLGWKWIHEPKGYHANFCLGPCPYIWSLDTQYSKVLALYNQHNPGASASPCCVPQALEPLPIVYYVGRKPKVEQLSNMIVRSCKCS

human TGF-β1 [3] = target: T1, human TGF-β1; assay: as above
human TGF-β2 = target: T3, human TGF-β2 (human, UniProt P61812 21-414); assay: as above
T3 chain: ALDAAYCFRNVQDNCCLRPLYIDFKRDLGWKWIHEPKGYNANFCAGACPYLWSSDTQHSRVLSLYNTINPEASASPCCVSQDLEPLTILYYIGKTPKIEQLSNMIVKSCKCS

T1 sequence (P01137 279-390 limits assumed): as the sequence (P04202 279-390 limits assumed) above, with S75A counted along it

NFAT-driven luciferase activity, fold change against isotype control Ab (human TGF-β1 [1]): 1.45 fold change
NFAT-driven luciferase activity, fold change against no Ab control (human TGF-β1 [1]): 1.45 fold change
Kd [2]: 2.8 nM
Kd (human TGF-β1 [3]): 1.48 nM
Kd (human TGF-β2): 3 nM
B1: Ab1 (antibody, human IgG4 S228P, kappa)
heavy: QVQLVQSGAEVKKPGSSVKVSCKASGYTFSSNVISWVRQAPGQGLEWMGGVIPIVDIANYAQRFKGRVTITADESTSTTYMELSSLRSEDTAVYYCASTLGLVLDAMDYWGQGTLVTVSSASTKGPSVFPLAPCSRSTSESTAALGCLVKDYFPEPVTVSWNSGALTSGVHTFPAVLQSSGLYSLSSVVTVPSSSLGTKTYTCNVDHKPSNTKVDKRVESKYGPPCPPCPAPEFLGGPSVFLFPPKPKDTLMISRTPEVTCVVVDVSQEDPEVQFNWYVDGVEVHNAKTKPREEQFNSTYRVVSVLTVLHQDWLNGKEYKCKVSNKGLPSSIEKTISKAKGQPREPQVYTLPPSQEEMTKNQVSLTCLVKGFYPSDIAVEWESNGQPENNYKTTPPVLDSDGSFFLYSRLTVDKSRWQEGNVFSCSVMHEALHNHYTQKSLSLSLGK
light: ETVLTQSPGTLSLSPGERATLSCRASQSLGSSYLAWYQQKPGQAPRLLIYGASSRAPGIPDRFSGSGSGTDFTLTISRLEPEDFAVYYCQQYADSPITFGQGTRLEIKRTVAAPSVFIFPPSDEQLKSGTASVVCLLNNFYPREAKVQWKVDNALQSGNSQESVTEQDSKDSTYSLSSTLTLSKADYEKHKVYACEVTHQGLSSPVTKSFNRGEC
notes: also called anti-TGF-β antibody Ab1; pan-TGF-β antibody
